# Test results published in patent publication US20240270821A1, “GIP/GLP1/GCG TRI-RECEPTOR AGONISTS AND USES THEREOF” (priority 2023, published 2024).
# Changes are numbered by the printed parent chain.
# B1: Example 1156 (peptide)
# chain: YXQGTXTSDXXIXLDXKAQXEFIEXLVEGGPSSGAPPPESE
# modifications: not fully specified; acylated lysine AEEA-γGlu-C18 diacid; non-natural residues; C-terminal amide; synthetic construct; SITE 2: note = 2-Aminoisobutyric Acid; SITE 6: note = alpha-methyl-2-fluoro-L-phenylalanine; SITE 10: note = 3-(4-Pyridyl)-L-alanine; SITE 11: note = alpha-methyl-L-serine; SITE 13: note = alpha-methyl-leucine; SITE 16: note = L-ornithine; SITE 17: note = Lysine is chemically mo
# B2: Example 1158 (peptide)
# chain: B1 chain with S40G
# modifications: not fully specified; non-natural residues, lysine acylation, C-terminal amide; synthetic construct; SITE 2: note = 2-Aminoisobutyric Acid; SITE 6: note = alpha-methyl-2-fluoro-L-phenylalanine; SITE 10: note = 3-(4-Pyridyl)-L-alanine; SITE 11: note = alpha-methyl-L-serine; SITE 13: note = alpha-methyl-leucine; SITE 16: note = L-ornithine; SITE 17: note = Lysine is chemically mo
# B3: Example 1153 (peptide)
# chain: B1 chain with A35E, E39T, S40G
# modifications: not fully specified; Aib, αMeF(2F), 4Pal, αMeS, Orn, Me4Pal, αMeY; acylated; amide; synthetic construct; SITE 2: note = 2-Aminoisobutyric Acid; SITE 6: note = alpha-methyl-2-fluoro-L-phenylalanine; SITE 10: note = 3-(4-Pyridyl)-L-alanine; SITE 11: note = alpha-methyl-L-serine; SITE 13: note = alpha-methyl-leucine; SITE 16: note = L-ornithine; SITE 17: note = Lysine is chemically mo
# B4: Example 1155 (peptide)
# chain: B1 chain with A35E, E39G, S40G
# modifications: not fully specified; Lys acylated AEEA-γGlu-C18 diacid; non-natural residues; C-amide; synthetic construct; SITE 2: note = 2-Aminoisobutyric Acid; SITE 6: note = alpha-methyl-2-fluoro-L-phenylalanine; SITE 10: note = 3-(4-Pyridyl)-L-alanine; SITE 11: note = alpha-methyl-L-serine; SITE 13: note = alpha-methyl-leucine; SITE 16: note = L-ornithine; SITE 17: note = Lysine is chemically mo
# B5: Example 1159 (peptide)
# chain: B1 chain with A35E, S40G
# modifications: Aib, αMeF(2F), 4Pal, Me4Pal, Orn; lipidated Lys; C-terminal amide; synthetic construct; SITE 2: note = 2-Aminoisobutyric Acid; SITE 6: note = alpha-methyl-2-fluoro-L-phenylalanine; SITE 10: note = 3-(4-Pyridyl)-L-alanine; SITE 11: note = alpha-methyl-L-serine; SITE 13: note = alpha-methyl-leucine; SITE 16: note = L-ornithine; SITE 17: note = Lysine is chemically mo
# B6: Example 1102 (peptide)
# chain: YXQGTFTSDXSQXLDXKAQXAFIEYLIQXGPSSGEPPPSGSEE
# modifications: not fully specified; non-natural residues, γGlu-C18 diacid acyl on K, C-terminal amide; synthetic construct; SITE 2: note = 2-Aminoisobutyric Acid; SITE 10: note = 3-(4-Pyridyl)-L-alanine; SITE 13: note = alpha-methyl-leucine; SITE 16: note = L-ornithine; SITE 17: note = Lysine is chemically modified through conjugation of the epsilon-amino group of the Lysine side chain with D-Glutami
# B7: Example 1103 (peptide)
# chain: B6 chain with Y25X, Q28E
# modifications: not fully specified; Aib, 4Pal, Orn, Me4Pal, αMeY; lipidated Lys; C-terminal amide; synthetic construct; SITE 2: note = 2-Aminoisobutyric Acid; SITE 10: note = 3-(4-Pyridyl)-L-alanine; SITE 13: note = alpha-methyl-leucine; SITE 16: note = L-ornithine; SITE 17: note = Lysine is chemically modified through conjugation of the epsilon-amino group of the Lysine side chain with D-Glutami
# B8: Example 1125 (peptide)
# chain: B6 chain with X16K, Y25X, Q28E
# modifications: Aib, 4Pal, Me4Pal, αMeL; lipidated Lys; C-terminal amide; synthetic construct; SITE 2: note = 2-Aminoisobutyric Acid; SITE 10: note = 3-(4-Pyridyl)-L-alanine; SITE 13: note = alpha-methyl-leucine; SITE 17: note = Lysine is chemically modified through conjugation of the epsilon-amino group of the Lysine side chain with (gamma-Glu)2-CO-(CH2)16-CO2H; SITE 20:
# B9: Example 1130 (peptide)
# chain: B6 chain with E24Q, Y25X, Q28A, S41G, E42G
# modifications: Lys acylated γGlu-C18 diacid; non-natural residues; C-amide; synthetic construct; SITE 2: note = 2-Aminoisobutyric Acid; SITE 10: note = 3-(4-Pyridyl)-L-alanine; SITE 13: note = alpha-methyl-leucine; SITE 16: note = L-ornithine; SITE 17: note = Lysine is chemically modified through conjugation of the epsilon-amino group of the Lysine side chain with D-Glutami
# B10: Example 1124 (peptide)
# chain: B6 chain with X16K, Y25X, Q28E, S41E
# modifications: non-natural residues (Aib, 4Pal, Me4Pal, αMeL); lipidated Lys; C-amide; synthetic construct; SITE 2: note = 2-Aminoisobutyric Acid; SITE 10: note = 3-(4-Pyridyl)-L-alanine; SITE 13: note = alpha-methyl-leucine; SITE 17: note = Lysine is chemically modified through conjugation of the epsilon-amino group of the Lysine side chain with (gamma-Glu)2-CO-(CH2)16-CO2H; SITE 20:
# B11: Example 1104 (peptide)
# chain: B6 chain with A21Q, Y25X, Q28E
# modifications: not fully specified; non-natural residues; Lys acylated C18 diacid via γGlu; C-term amide; synthetic construct; SITE 2: note = 2-Aminoisobutyric Acid; SITE 10: note = 3-(4-Pyridyl)-L-alanine; SITE 13: note = alpha-methyl-leucine; SITE 16: note = L-ornithine; SITE 17: note = Lysine is chemically modified through conjugation of the epsilon-amino group of the Lysine side chain with D-Glutami
# B12: Example 1106 (peptide)
# chain: B6 chain with A21Q, Y25X, Q28A
# modifications: not fully specified; Aib, 4Pal, Orn, Me4Pal, αMeY; lipidated Lys; C-terminal amide; synthetic construct; SITE 2: note = 2-Aminoisobutyric Acid; SITE 10: note = 3-(4-Pyridyl)-L-alanine; SITE 13: note = alpha-methyl-leucine; SITE 16: note = L-ornithine; SITE 17: note = Lysine is chemically modified through conjugation of the epsilon-amino group of the Lysine side chain with D-Glutami
# B13: Example 1131 (peptide)
# chain: B6 chain with E24Q, Y25X, Q28E, S41G, E42G
# modifications: not fully specified; non-natural residues, C18 diacid acylation, C-terminal amide; synthetic construct; SITE 2: note = 2-Aminoisobutyric Acid; SITE 10: note = 3-(4-Pyridyl)-L-alanine; SITE 13: note = alpha-methyl-leucine; SITE 16: note = L-ornithine; SITE 17: note = Lysine is chemically modified through conjugation of the epsilon-amino group of the Lysine side chain with D-Glutami
# B14: Example 1105 (peptide)
# chain: B6 chain with Y25X, Q28A
# modifications: not fully specified; non-natural residues; Lys acylated γGlu-C18 diacid; C-terminal amide; synthetic construct; SITE 2: note = 2-Aminoisobutyric Acid; SITE 10: note = 3-(4-Pyridyl)-L-alanine; SITE 13: note = alpha-methyl-leucine; SITE 16: note = L-ornithine; SITE 17: note = Lysine is chemically modified through conjugation of the epsilon-amino group of the Lysine side chain with D-Glutami
# Target: T1, human GIP receptor (human) (UniProt P48546)
# T1 sequence (looked up): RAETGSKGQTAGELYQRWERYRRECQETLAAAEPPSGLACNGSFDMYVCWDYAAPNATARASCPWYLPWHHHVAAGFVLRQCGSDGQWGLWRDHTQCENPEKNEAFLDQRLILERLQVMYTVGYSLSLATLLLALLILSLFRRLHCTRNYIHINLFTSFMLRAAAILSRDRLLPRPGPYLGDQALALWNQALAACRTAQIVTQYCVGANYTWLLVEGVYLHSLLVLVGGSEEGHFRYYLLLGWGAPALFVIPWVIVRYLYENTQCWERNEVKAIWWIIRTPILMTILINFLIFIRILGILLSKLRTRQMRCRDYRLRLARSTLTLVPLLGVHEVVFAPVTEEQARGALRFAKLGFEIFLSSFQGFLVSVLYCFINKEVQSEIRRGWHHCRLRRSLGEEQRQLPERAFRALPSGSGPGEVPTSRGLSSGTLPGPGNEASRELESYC
# Assay: cell-based or functional assay
Binder,Relative cAMP EC50 [nM],cAMP Rel EC50 (in the presence of 1% HSA) [nM],cAMP Rel EC50 (1% HSA) [nM]
B1,0.0127,1.33,–
B2,0.0126,1.42,–
B3,0.0109,1.39,–
B4,0.00917,0.888,–
B5,0.0118,1.29,–
B6,0.0418,–,5.12
B7,0.0723,–,19.5
B8,0.173,–,3.95
B9,0.0441,–,3.73
B10,0.187,–,12
B11,0.09,–,13.9
B12,0.0312,–,4.23
B13,0.0472,–,5.47
B14,0.0427,–,5.59

# Target: hGLP-1R (Homo sapiens, UniProt P43220)
# Sequence (P43220 24-463): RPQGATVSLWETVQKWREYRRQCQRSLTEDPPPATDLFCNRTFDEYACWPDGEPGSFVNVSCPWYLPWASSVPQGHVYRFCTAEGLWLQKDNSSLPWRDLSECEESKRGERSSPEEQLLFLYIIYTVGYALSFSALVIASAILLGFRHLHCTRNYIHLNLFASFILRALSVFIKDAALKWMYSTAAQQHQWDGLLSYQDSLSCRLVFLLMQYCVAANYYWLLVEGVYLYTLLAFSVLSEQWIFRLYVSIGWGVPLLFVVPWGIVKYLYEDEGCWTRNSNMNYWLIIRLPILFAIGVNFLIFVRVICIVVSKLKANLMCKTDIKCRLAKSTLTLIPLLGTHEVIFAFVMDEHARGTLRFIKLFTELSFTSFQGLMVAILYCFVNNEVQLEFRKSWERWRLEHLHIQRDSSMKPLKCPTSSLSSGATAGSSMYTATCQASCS
# Assay: cell-based or functional assay
Binder,Relative cAMP EC50 [nM],cAMP Rel EC50 (in the presence of 1% HSA) [nM],cAMP Rel EC50 (1% HSA) [nM]
B1,0.444,47.1,–
B2,0.419,46.8,–
B3,0.33,52.7,–
B4,0.434,44.4,–
B5,0.45,64.1,–
B6,2.18,–,295
B7,1.06,–,183
B8,8.26,–,243
B9,0.641,–,44.5
B10,10.1,–,304
B11,1.7,–,272
B12,0.87,–,119
B13,0.483,–,63.7
B14,0.875,–,92.5

# Target: human glucagon receptor (human) (UniProt P47871)
# Sequence (P47871 26-477): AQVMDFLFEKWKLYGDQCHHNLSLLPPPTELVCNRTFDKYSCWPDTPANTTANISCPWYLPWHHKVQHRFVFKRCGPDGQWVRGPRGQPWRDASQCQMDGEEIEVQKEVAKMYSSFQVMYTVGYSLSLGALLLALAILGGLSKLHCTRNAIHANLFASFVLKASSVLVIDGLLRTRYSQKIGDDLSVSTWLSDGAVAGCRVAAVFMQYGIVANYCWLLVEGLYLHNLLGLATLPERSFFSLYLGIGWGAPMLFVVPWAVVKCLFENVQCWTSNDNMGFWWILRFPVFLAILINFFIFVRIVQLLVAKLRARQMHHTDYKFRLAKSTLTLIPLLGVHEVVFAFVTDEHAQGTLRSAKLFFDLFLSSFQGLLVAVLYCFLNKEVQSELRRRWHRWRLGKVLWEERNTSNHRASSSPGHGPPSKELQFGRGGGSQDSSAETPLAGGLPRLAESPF
# Assay: cell-based or functional assay
Binder,Relative cAMP EC50 [nM],cAMP Rel EC50 (in the presence of 1% HSA) [nM],cAMP Rel EC50 (1% HSA) [nM]
B1,2.94,337,–
B2,2.19,301,–
B3,2.69,215,–
B4,1.83,288,–
B5,1.86,238,–
B6,4.37,–,516
B7,11.1,–,1350
B8,5.83,–,264
B9,13.3,–,1240
B10,6.97,–,400
B11,11.1,–,1470
B12,7.71,–,1030
B13,8.42,–,1140
B14,10.7,–,1260
